The test has as its system soybean William82. The test is described as follows: Spray testing of transgenic soybean T1 seedlings. It counts as in vivo. Particulars: 2,4-D 4.48 kg/ha foliage spray, 10 days after spraying. From the text:
1. Vector construction: the pQY2330 vector (see FIG. 8-1) was used as the overexpression vector, containing a Bar resistance gene that can be used as a selection marker for glufosinate. The AAD-like gene, QYD42, SEQ ID NO. 83, was linked to the Xho I restriction site by seamless cloning to construct the transgenic expression vector pQY2330, of which the expression cassette consisted of a double CaMV35S promoter, the AAD-like gene QYD42 and a […] Nos terminator.
2. Genetic transformation of soybeans: Soybean transformation was carried out using the Agrobacterium-mediated cotyledon nodes transformation method (Pareddy D, Chennareddy S, Anthony G, et al. Improved soybean transformation for efficient and high throughput transgenic production[J]. Transgenic Research, 2020, 29(968)). A monoclone of the Agrobacterium (EHA105) comprising the overexpression vector pQY2330 was inoculated into 5 ml YEP liquid medium (containing 25 mg/L Rifampicin and 50 mg/L Kanamycin) and shaking-cultured at 220 rmp/min, 28° C. for 8 hours. And then 0.2-0.3 ml bacteria solution was transferred to 200 ml YEP liquid medium (containing 25 mg/L Rifampicin and 50 mg/L Kanamycin) and shaking-cultured at 220 rmp/min, 28° C. overnight until the bacteria reached the exponential growth stage, then centrifuged at 4000 rmp/min for 20 min to collect the cells into a 50 ml centrifuge tube (sterilized). […]

Entries after “also recorded” stand apart in the source; their conditions may differ.

B1: QYD42: AAD-like enzyme, SEQ ID NO. 83; expressed from vectors pQY2309 (Arabidopsis), pQY2329 (maize), pQY2330 (soybean) (protein)
chain: MQITPIADATFGATVTGLRLATLDDAGFARLHAAWLQHALLVFPGQFLTNAEQIGFAKRFGPIERIGGGDIVAISNVKADGTVRQHSPAEWDDMMKVIVGNMAWHADSTYMPVMAQGAVFSAEVVPPTGGRTCFADMRAAYDALDDATRALVHQRSARHSLVYSQSKLGHVQQAGSAYVGYGMDTTATPLRPLVKRHPETGRLSLLIGRHAHAIPGLEEAESERFLEDLVAWACQPPRVVAHHWTAGDVVLWDNRCLLHRAEPWDFTLPRVMWHSRLAGHPETEAAPLV
modifications: Synthetic polypeptide, QYD42, D42
In the case of B1, the “Resistance of T1 transgenic soybean to 2,4-D (spray)” value is reported as “no phytotoxicity; also recorded: remains normal”.

The record behind these values is patent US20240043859A1, “HERBICIDE-RESISTANT PROTEIN, AND GENE AND USE THEREOF” (QINGDAO KINGAGROOT CHEMICAL COMPOUND CO., LTD., priority 2020, published 2024).
